{
  "source": "paper PMC10099132",
  "about": "“Sequence and Structural Motifs Controlling the Broad Substrate Specificity of the Mycobacterial Hormone-Sensitive Lipase LipN” (ACS Omega, 2023)",
  "assay_in_all_cases": "purified protein, by the assay type",
  "design_in_all_cases": "p-nitrophenyl ester hydrolysis, absorbance at 412 nm, Michaelis-Menten fit",
  "key": {"[1]": {"substrate": "CCCCC(=O)Oc1ccc([N+](=O)[O-])cc1", "excerpt": "(§1) (A) Classic p-nitrophenyl ester substrates were used as conformation for fluorogenic substrate measurements (Figure 1). (B) Catalytic efficiency comparison of MmLipN against p-nitrophenyl substrates. Catalytic efficiency values (kcat/Km) are given ± SD. (C, D) Kinetic activity of MmLipN against (C) short alkyl ester substrates: p-nitrophenyl acetate (C2) and p-nitrophenyl butyrate (C4) and (D) longer alkyl ester substrates: p-nitrophenyl valerate ([…]), p-nitrophenyl octonoate (C8), and p-nitrophenyl myristate (C14). Data points were fitted to the Michaelis–Menten equation and are shown ± SD."}, "[2]": {"substrate": "CCCCCCCC(=O)Oc1ccc([N+](=O)[O-])cc1", "excerpt": "as §1"}, "[3]": {"substrate": "CCCCCCCCCCCCCC(=O)Oc1ccc([N+](=O)[O-])cc1", "excerpt": "as §1"}, "[4]": {"substrate": "CC(=O)Oc1ccc([N+](=O)[O-])cc1", "excerpt": "as §1"}},
  "data": [
    {"protein": "MmLipN (LipN from M. marinum) (Mycobacterium marinum M) (protein, E. coli LOBSTR (DE3); Ni-NTA) MTNSLPGETDLHPETVHATMSWLSRVQNTVTVVGAKVIPWVPDVAKRLITRGRSVIIDGNTLDPALQLMLSGMRVVGLDGLVIDDDLAASRAHMREAMLGFPGPQIHVDVEELTLPGPAGDISARHYRPPGDAAAPLLVFYHGGGWALGDLDTHDAVCRLTCRDAGIHVLAIDYRLSPEDRAPAAIDDAFAAFEWAHAHAAELGALPGRVAVGGDSAGGNLAAVVSQLARDSGGPAPIFQWLIYPRTDFAGRTRSASLFARGFLLTKRDIDWFHSQYLKGSGIEPTDPRVSPLRAESLAGLAPALIAVAGFDPLRDEGENYATALRAAGTPVDLRAMGSLTHGFLNLFPLGGGCAAATSELISALRAHLTRV", "values": [
      {"measurement": "Km", "setting": "[1]", "result": "250 ± 70", "unit": "µM"},
      {"measurement": "kcat", "setting": "[1]", "result": "15 ± 1", "unit": "s⁻¹"},
      {"measurement": "kcat/Km", "setting": "[1]", "result": "59000 ± 8000", "unit": "M⁻¹ s⁻¹"},
      {"measurement": "Km", "setting": "[2]", "result": "410 ± 330", "unit": "µM"},
      {"measurement": "kcat", "setting": "[2]", "result": "1.1 ± 0.2", "unit": "s⁻¹"},
      {"measurement": "kcat/Km", "setting": "[2]", "result": "2700 ± 1100", "unit": "M⁻¹ s⁻¹"},
      {"measurement": "Km", "setting": "[3]", "result": "120 ± 50", "unit": "µM"},
      {"measurement": "kcat", "setting": "[3]", "result": "0.28 ± 0.02", "unit": "s⁻¹"},
      {"measurement": "kcat/Km", "setting": "[3]", "result": "2300 ± 400", "unit": "M⁻¹ s⁻¹"},
      {"measurement": "Km", "setting": "[4]", "result": "2400 ± 1200", "unit": "µM"},
      {"measurement": "kcat", "setting": "[4]", "result": "94 ± 8", "unit": "s⁻¹"},
      {"measurement": "kcat/Km", "setting": "[4]", "result": "39000 ± 10000", "unit": "M⁻¹ s⁻¹"}
    ]}
  ]
}
